Each block holds one binder with its values, some of them ahead of it.
Key:
[1] = target: CD40 (native receptor on the surface of human cells) (human, UniProt P25942 21-277); assay: cell-based or functional assay
[2] = target: T1, human CD40-Fc (Enzo, catalogue number ALX-522-016-C050) (human, UniProt P25942 21-193); assay: QCM (Attana A100), human CD40-Fc immobilized, analyte at 1, 5 and 10 µg/ml
T1 construct: Bought reagent; also called immobilized CD40-receptor; not shown: Fc part of the bought fusion protein, not described
Description: The equilibrium binding constants (KD) of trivalent constructs of CD40L (e.g.: PROTEIN X) and hexavalent constructs of CD40L (e.g. PROTEIN A, PROTEIN B, and PROTEIN C) to CD40 was calculated based on kinetic binding data (kₒₙ and koff) determined with an automated biosensor system (Attana A100). The A100 allows to investigate molecular interactions in real-time based on the Quartz Crystal Microbalance (QCM) technique.
For this purpose human CD40-Fc, purchased from Enzo (catalogue number: ALX-522-016-C050), was immobilized on the surface of a carboxyl-activated QCM-chip. Trimeric and hexameric CD40L-constructs were used as soluble analyte at concentrations of 1, 5, and 10 μg/ml. Binding (kₒₙ) and dissociation (koff) was analyzed.

Sequence of CD40 (native receptor on the surface of human cells) (P25942 21-277): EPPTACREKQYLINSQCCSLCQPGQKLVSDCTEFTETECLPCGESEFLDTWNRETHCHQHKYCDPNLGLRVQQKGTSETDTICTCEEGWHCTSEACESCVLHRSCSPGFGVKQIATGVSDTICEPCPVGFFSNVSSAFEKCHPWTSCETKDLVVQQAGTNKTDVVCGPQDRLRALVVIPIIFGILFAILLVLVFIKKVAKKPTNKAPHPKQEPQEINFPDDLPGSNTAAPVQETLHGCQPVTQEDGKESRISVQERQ
T1 sequence (P25942 21-193 limits assumed): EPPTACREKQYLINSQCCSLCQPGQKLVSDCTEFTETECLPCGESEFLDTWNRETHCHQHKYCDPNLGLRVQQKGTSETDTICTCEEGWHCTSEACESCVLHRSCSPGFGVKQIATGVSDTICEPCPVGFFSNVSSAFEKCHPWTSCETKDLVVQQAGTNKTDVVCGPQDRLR

CD86 (MFI), monocytes 3 d, 10 ng/mL [1]: 11 MFI | CD86 (MFI), monocytes 3 d, 100 ng/mL [1]: 12 MFI | CD86 (MFI), monocytes 3 d, 1000 ng/mL [1]: 11 MFI | HLA-DR,DP (MFI), monocytes 3 d, 10 ng/mL [1]: 26 MFI | HLA-DR,DP (MFI), monocytes 3 d, 100 ng/mL [1]: 29 MFI | HLA-DR,DP (MFI), monocytes 3 d, 1000 ng/mL [1]: 22 MFI | Percentage of macrophages that are CD86+, 3 d, 10 ng/mL [1]: 7% | Percentage of macrophages that are CD86+, 3 d, 100 ng/mL [1]: 7% | Percentage of macrophages that are CD86+, 3 d, 1000 ng/mL [1]: 8% | Percentage of macrophages that are CD206+ and CD163+ (M2-like), 3 d, 10 ng/mL [1]: 21% | Percentage of macrophages that are CD206+ and CD163+ (M2-like), 3 d, 100 ng/mL [1]: 23% | Percentage of macrophages that are CD206+ and CD163+ (M2-like), 3 d, 1000 ng/mL [1]: 21% | Percentage of macrophages that are HLA-DR,DP+, 3 d, 10 ng/mL [1]: 5% | Percentage of macrophages that are HLA-DR,DP+, 3 d, 100 ng/mL [1]: 7% | Percentage of macrophages that are HLA-DR,DP+, 3 d, 1000 ng/mL [1]: 2%
B1: PROTEIN-X2 (ligand)
chain: QIAAHVISEASSKTTSVLQWAEKGYYTMSNNLVTLENGKQLTVKRQGLYYIYAQVTFCSNREASSQAPFIASLCLKSPGRFERILLRAANTHSSAKPCGQQSIHLGGVFELQPGASVFVNVTDPSQVSHGTGFTSFGLLKLGSSSSSSAWSHPQFEK

CD86 (MFI), monocytes 3 d, 10 ng/mL [1]: 11 MFI | CD86 (MFI), monocytes 3 d, 100 ng/mL [1]: 11 MFI | CD86 (MFI), monocytes 3 d, 1000 ng/mL [1]: 12 MFI | HLA-DR,DP (MFI), monocytes 3 d, 10 ng/mL [1]: 26 MFI | HLA-DR,DP (MFI), monocytes 3 d, 100 ng/mL [1]: 26 MFI | HLA-DR,DP (MFI), monocytes 3 d, 1000 ng/mL [1]: 31 MFI | Percentage of macrophages that are CD86+, 3 d, 10 ng/mL [1]: 7% | Percentage of macrophages that are CD86+, 3 d, 100 ng/mL [1]: 8% | Percentage of macrophages that are CD86+, 3 d, 1000 ng/mL [1]: 16% | Percentage of macrophages that are CD206+ and CD163+ (M2-like), 3 d, 10 ng/mL [1]: 17% | Percentage of macrophages that are CD206+ and CD163+ (M2-like), 3 d, 100 ng/mL [1]: 21% | Percentage of macrophages that are CD206+ and CD163+ (M2-like), 3 d, 1000 ng/mL [1]: 10% | Percentage of macrophages that are HLA-DR,DP+, 3 d, 10 ng/mL [1]: 5% | Percentage of macrophages that are HLA-DR,DP+, 3 d, 100 ng/mL [1]: 6% | Percentage of macrophages that are HLA-DR,DP+, 3 d, 1000 ng/mL [1]: 12% | Kd [2]: 9.05 nM
B2: PROTEIN X (ligand)
chain: QIAAHVISEASSKTTSVLQWAEKGYYTMSNNLVTLENGKQLTVKRQGLYYIYAQVTFCSNREASSQAPFIASLCLKSPGRFERILLRAANTHSSAKPCGQQSIHLGGVFELQPGASVFVNVTDPSQVSHGTGFTSFGLLKLGSGSSGSSGSSGSGYIEDAPSDGKFYVRKDGAWVELPTASGPSSSSSSAWSHPQFEK
notes: Three identical polypeptides; also called trivalent control protein; homotrimeric CD40L-RBD stabilized by RB69 trimerisation scaffold

Reference: US20180066036A1 (APOGENIX, published 2018)
